Six substances from doi:10.1101/2025.09.24.678339 can be followed below.

The target of experiment [1] is DNMT3A2 D876A, full-length, purified (human). The experiment is described as follows: SEC. (In general: SEC sorts molecules by how far they enter the pores of the column.)
Experiment [2] shares this target. Nature of the experiment: SEC + other: mass photometry.
Experiment [3] concerns the target DNMT3A2 wild type, full-length, purified (human). The experiment is described as follows: SEC.
Experiment [4] has the same target. Nature of the experiment: SEC + other: mass photometry.
Experiment [5] concerns the target DNMT3A2 D876A/R882H, full-length, purified (human). The experiment is described as follows: SEC.
For experiment [6], the target named is DNMT3A2 L859F/D876A/R882H, full-length, purified (human). Nature of the experiment: SEC.
The target in experiment [7] is DNMT3A2 L859F/R882H, full-length, purified (human). Nature of the experiment: SEC.
In experiment [8] the target is DNMT3A2 R882H, full-length, purified (human). Nature of the experiment: SEC.

The term stoichiometry N denotes the number of molecules, sites or subunits per partner or assembly. Regarding “DNMT3A2 D876A, full-length, purified (enzyme)”, the stoichiometry N in experiment [1] and in experiment [2] was 2 in each case.

With “DNMT3A2 wild type, full-length, purified (enzyme)”, the stoichiometry N in experiment [3] and in experiment [4] was 4 throughout.

On to “DNMT3A2 D876A/R882H, full-length, purified (enzyme)”, for which the stoichiometry N in experiment [5] came to 2.

In turn, “DNMT3A2 L859F/D876A/R882H, full-length, purified (enzyme)” showed a stoichiometry N in experiment [6] of 2.

For the substance “DNMT3A2 L859F/R882H, full-length, purified (enzyme)”, the stoichiometry N in experiment [7] is 4.

The substance “DNMT3A2 R882H, full-length, purified (enzyme)” came in with a stoichiometry N in experiment [8] of 4.
